Laboratory results taken from the supplement of paper PMC10567573.

B1: LOXL2 (parent)
chain: FSPDGPSRFRKAYKPEQPLVRLRG

Variants of: B1
Assay: protein stability index of a GFP-peptide fusion (GPS, HEK-293T) (PSI 1-6); higher = more stable
Conditions: c terminus: a fixed tail appended
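Further: lentivirally expressed fusions sorted by FACS into six bins by GFP to DsRed ratio, PSI derived from sequencing read proportions per bin multiplied by bin number.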

Compared with FSPDGPSRFRKAIKPEQPLVRLRG [Y13I], FSPDGPSRFRKAKKPEQPLVRLRG [Y13K] is higher in protein stability index: 1.54 for the first, 2.77 for the second.

Going from FSPDGPSRFRKALKPEQPLVRLRG [Y13L] to FSPDGPSRFRKAMKPEQPLVRLRG [Y13M], the protein stability index falls from 1.97 to 1.54.

Going from FSPDGPSRFRKANKPEQPLVRLRG [Y13N] to FSPDGPSRFRKAPKPEQPLVRLRG [Y13P], the protein stability index rises from 2.15 to 2.55.

First: FSPDGPSRFRKAQKPEQPLVRLRG [Y13Q]
Second: FSPDGPSRFRKARKPEQPLVRLRG [Y13R]
The protein stability index of the first is higher: 2.38 for the first, 2.27 for the second.

Compared with FSPDGPSRFRKASKPEQPLVRLRG [Y13S], FSPDGPSRFRKATKPEQPLVRLRG [Y13T] is lower in protein stability index: 2.44 for the first, 1.69 for the second.

Compared with FSPDGPSRFRKAVKPEQPLVRLRG [Y13V], FSPDGPSRFRKAWKPEQPLVRLRG [Y13W] is lower in protein stability index: 3.86 for the first, 3.28 for the second.

First: FSPDGPSRFRKAYAPEQPLVRLRG [K14A]
Second: FSPDGPSRFRKAYCPEQPLVRLRG [K14C]
The protein stability index of the first is lower: 2.1 for the first, 3.06 for the second.

Going from FSPDGPSRFRKAYDPEQPLVRLRG [K14D] to FSPDGPSRFRKAYEPEQPLVRLRG [K14E], the protein stability index falls from 1.86 to 1.83.

Compared with FSPDGPSRFRKAYFPEQPLVRLRG [K14F], FSPDGPSRFRKAYGPEQPLVRLRG [K14G] is higher in protein stability index: 1.72 for the first, 2.32 for the second.

Going from FSPDGPSRFRKAYHPEQPLVRLRG [K14H] to FSPDGPSRFRKAYIPEQPLVRLRG [K14I], the protein stability index rises from 2.06 to 2.86.

Going from FSPDGPSRFRKAYLPEQPLVRLRG [K14L] to FSPDGPSRFRKAYMPEQPLVRLRG [K14M], the protein stability index falls from 2.46 to 2.19.

Compared with FSPDGPSRFRKAYNPEQPLVRLRG [K14N], FSPDGPSRFRKAYPPEQPLVRLRG [K14P] is lower in protein stability index: 2.35 for the first, 1.95 for the second.

Compared with FSPDGPSRFRKAYQPEQPLVRLRG [K14Q], FSPDGPSRFRKAYRPEQPLVRLRG [K14R] is lower in protein stability index: 1.76 for the first, 1.54 for the second.

First: FSPDGPSRFRKAYSPEQPLVRLRG [K14S]
Second: FSPDGPSRFRKAYTPEQPLVRLRG [K14T]
The protein stability index of the first is lower: 1.48 for the first, 3.59 for the second.

Going from FSPDGPSRFRKAYVPEQPLVRLRG [K14V] to FSPDGPSRFRKAYWPEQPLVRLRG [K14W], the protein stability index falls from 2.71 to 1.99.

Compared with FSPDGPSRFRKAYYPEQPLVRLRG [K14Y], FSPDGPSRFRKAYKAEQPLVRLRG [P15A] is lower in protein stability index: 2.61 for the first, 1.85 for the second.

Going from FSPDGPSRFRKAYKCEQPLVRLRG [P15C] to FSPDGPSRFRKAYKDEQPLVRLRG [P15D], the protein stability index falls from 3.13 to 1.68.

Going from FSPDGPSRFRKAYKEEQPLVRLRG [P15E] to FSPDGPSRFRKAYKFEQPLVRLRG [P15F], the protein stability index rises from 1.43 to 1.83.

Compared with FSPDGPSRFRKAYKGEQPLVRLRG [P15G], FSPDGPSRFRKAYKHEQPLVRLRG [P15H] is lower in protein stability index: 2.48 for the first, 1.7 for the second.

First: FSPDGPSRFRKAYKIEQPLVRLRG [P15I]
Second: FSPDGPSRFRKAYKKEQPLVRLRG [P15K]
The protein stability index of the first is higher: 2.07 for the first, 1.66 for the second.

Compared with FSPDGPSRFRKAYKLEQPLVRLRG [P15L], FSPDGPSRFRKAYKMEQPLVRLRG [P15M] is lower in protein stability index: 3.53 for the first, 2.79 for the second.

Going from FSPDGPSRFRKAYKNEQPLVRLRG [P15N] to FSPDGPSRFRKAYKQEQPLVRLRG [P15Q], the protein stability index falls from 2.52 to 1.7.

Compared with FSPDGPSRFRKAYKREQPLVRLRG [P15R], FSPDGPSRFRKAYKSEQPLVRLRG [P15S] is higher in protein stability index: 2.88 for the first, 3.74 for the second.

Compared with FSPDGPSRFRKAYKTEQPLVRLRG [P15T], FSPDGPSRFRKAYKVEQPLVRLRG [P15V] is higher in protein stability index: 1.41 for the first, 2.28 for the second.

Compared with FSPDGPSRFRKAYKWEQPLVRLRG [P15W], FSPDGPSRFRKAYKYEQPLVRLRG [P15Y] is higher in protein stability index: 1.5 for the first, 1.6 for the second.

Going from FSPDGPSRFRKAYKPAQPLVRLRG [E16A] to FSPDGPSRFRKAYKPCQPLVRLRG [E16C], the protein stability index rises from 1.96 to 2.49.

Going from FSPDGPSRFRKAYKPDQPLVRLRG [E16D] to FSPDGPSRFRKAYKPFQPLVRLRG [E16F], the protein stability index falls from 2.65 to 1.39.

First: FSPDGPSRFRKAYKPGQPLVRLRG [E16G]
Second: FSPDGPSRFRKAYKPHQPLVRLRG [E16H]
The protein stability index of the first is lower: 1.54 for the first, 1.63 for the second.

Compared with FSPDGPSRFRKAYKPIQPLVRLRG [E16I], FSPDGPSRFRKAYKPKQPLVRLRG [E16K] is lower in protein stability index: 3.39 for the first, 2.67 for the second.

Going from FSPDGPSRFRKAYKPLQPLVRLRG [E16L] to FSPDGPSRFRKAYKPNQPLVRLRG [E16N], the protein stability index falls from 2.74 to 1.64.

First: FSPDGPSRFRKAYKPPQPLVRLRG [E16P]
Second: FSPDGPSRFRKAYKPQQPLVRLRG [E16Q]
The protein stability index of the first is lower: 1.72 for the first, 2.92 for the second.

First: FSPDGPSRFRKAYKPSQPLVRLRG [E16S]
Second: FSPDGPSRFRKAYKPTQPLVRLRG [E16T]
The protein stability index of the first is higher: 2.72 for the first, 2.09 for the second.

Going from FSPDGPSRFRKAYKPVQPLVRLRG [E16V] to FSPDGPSRFRKAYKPYQPLVRLRG [E16Y], the protein stability index rises from 1.85 to 2.75.

Compared with FSPDGPSRFRKAYKPEAPLVRLRG [Q17A], FSPDGPSRFRKAYKPECPLVRLRG [Q17C] is higher in protein stability index: 2.07 for the first, 2.65 for the second.

Going from FSPDGPSRFRKAYKPEDPLVRLRG [Q17D] to FSPDGPSRFRKAYKPEEPLVRLRG [Q17E], the protein stability index rises from 2.08 to 4.03.

Compared with FSPDGPSRFRKAYKPEFPLVRLRG [Q17F], FSPDGPSRFRKAYKPEGPLVRLRG [Q17G] is lower in protein stability index: 2.74 for the first, 2.53 for the second.

Going from FSPDGPSRFRKAYKPEHPLVRLRG [Q17H] to FSPDGPSRFRKAYKPEIPLVRLRG [Q17I], the protein stability index rises from 1.46 to 2.18.

First: FSPDGPSRFRKAYKPEKPLVRLRG [Q17K]
Second: FSPDGPSRFRKAYKPELPLVRLRG [Q17L]
The protein stability index of the first is lower: 1.54 for the first, 2.03 for the second.

Going from FSPDGPSRFRKAYKPEMPLVRLRG [Q17M] to FSPDGPSRFRKAYKPENPLVRLRG [Q17N], the protein stability index falls from 2.48 to 1.4.

Going from FSPDGPSRFRKAYKPEPPLVRLRG [Q17P] to FSPDGPSRFRKAYKPERPLVRLRG [Q17R], the protein stability index falls from 2.81 to 1.57.

First: FSPDGPSRFRKAYKPESPLVRLRG [Q17S]
Second: FSPDGPSRFRKAYKPETPLVRLRG [Q17T]
The protein stability index of the first is higher: 2.25 for the first, 1.5 for the second.

First: FSPDGPSRFRKAYKPEVPLVRLRG [Q17V]
Second: FSPDGPSRFRKAYKPEWPLVRLRG [Q17W]
The protein stability index of the first is higher: 2.21 for the first, 1.28 for the second.

Going from FSPDGPSRFRKAYKPEQALVRLRG [P18A] to FSPDGPSRFRKAYKPEQCLVRLRG [P18C], the protein stability index falls from 2.07 to 1.52.

Compared with FSPDGPSRFRKAYKPEQDLVRLRG [P18D], FSPDGPSRFRKAYKPEQELVRLRG [P18E] is lower in protein stability index: 2.04 for the first, 1.82 for the second.

Going from FSPDGPSRFRKAYKPEQFLVRLRG [P18F] to FSPDGPSRFRKAYKPEQGLVRLRG [P18G], the protein stability index rises from 1.11 to 1.66.

Going from FSPDGPSRFRKAYKPEQHLVRLRG [P18H] to FSPDGPSRFRKAYKPEQILVRLRG [P18I], the protein stability index falls from 2.03 to 1.95.

Compared with FSPDGPSRFRKAYKPEQKLVRLRG [P18K], FSPDGPSRFRKAYKPEQLLVRLRG [P18L] is lower in protein stability index: 2.38 for the first, 1.89 for the second.
